B1: neurotrophin 5 (NT5) (ligand, UniProt P34130 81-210, looked up)
chain: GVSETAPASRRGELAVCDAVSGWVTDRRTAVDLRGREVEVLGEVPAAGGSPLRQYFFETRCKADNAEEGGPGAGGGGCRGVDRRHWVSECKAKQSYVRALTADAQGRVGWRWIRIDTACVCTLLSRTGRA
B2: neurotrophin 3 (NT3) (ligand, UniProt P20783 139-257, looked up)
chain: YAEHKSHRGEYSVCDSESLWVTDKSSAIDIRGHQVTVLGEIKTGNSPVKQYFYETRCKEARPVKNGCRGIDDKHWNSQCKTSQTYVRALTSENNKLVGWRWIRIDTSCVCALSRKIGRT

Experiments:
[1] = target: gD.trkB.IgG (gD tagged trkB.IgG fusion protein) (Herpes simplex virus; human) (UniProt Q16620); experiment: competitive displacement of iodinated NT5 from gD tagged trkB.IgG in 293 cell supernatant
[2] = target: gD.trkC.IgG (gD tagged trkC.IgG fusion protein) (Herpes simplex virus; human) (UniProt Q16288); experiment: competitive displacement of iodinated NT3 from gD tagged trkC.IgG in 293 cell supernatant
[3] = target: trkC.IgG (untagged trk.IgG fusion of the trkC extracellular domain and IgG-1 Fc) (human) (UniProt Q16288); experiment: competitive displacement of iodinated NT3 from trkC.IgG in 293 cell supernatant

Binder	IC50 [1] [pM]	IC50 [2] [pM]	IC50 [3] [pM]
B1	12.1		
B2		30.2	31.1

From patent US20020137113A1
